Measurements from patent US20150073033A1 (University of Texas, published 2015).
Numbering of substitutions follows the chain as printed. In names and notes the source's numbering stands.

B1: FLAG-PKM2 K367M (kinase-dead) (enzyme)
chain: not shown
notes: Expressed in U87/EGFR cells
B2: endogenous β-catenin (other, human, UniProt P35222 2-781, looked up)
chain: ATQADLMELDMAMEPDRKAAVSHWQQQSYLDSGIHSGATTTAPSLSGKGNPEEEDVDTSQVLYEWEQGFSQSFTQEQVADIDGQYAMTRAQRVRAAMFPETLDEGMQIPSTQFDAAHPTNVQRLAEPSQMLKHAVVNLINYQDDAELATRAIPELTKLLNDEDQVVVNKAAVMVHQLSKKEASRHAIMRSPQMVSAIVRTMQNTNDVETARCTAGTLHNLSHHREGLLAIFKSGGIPALVKMLGSPVDSVLFYAITTLHNLLLHQEGAKMAVRLAGGLQKMVALLNKTNVKFLAITTDCLQILAYGNQESKLIILASGGPQALVNIMRTYTYEKLLWTTSRVLKVLSVCSSNKPAIVEAGGMQALGLHLTDPSQRLVQNCLWTLRNLSDAATKQEGMEGLLGTLVQLLGSDDINVVTCAAGILSNLTCNNYKNKMMVCQVGGIEALVRTVLRAGDREDITEPAICALRHLTSRHQEAEMAQNAVRLHYGLPVVVKLLHPPSHWPLIKATVGLIRNLALCPANHAPLREQGAIPRLVQLLVRAHQDTQRRTSMGGTQQQFVEGVRMEEIVEGCTGALHILARDVHNRIVIRGLNTIPLFVQLLYSPIENIQRVAAGVLCELAQDKEAAEAIEAEGATAPLTELLHSRNEGVATYAAAVLFRMSEDKPQDYKKRLSVELTSSLFRTEPMAWNETADLGLDIGAQGEPLGYRQDDPSYRSFHSGGYGQDALGMDPMMEHEMGGHHPGADYPVDGLPDLGHAQDLMDGLPPGDSNQLAWFDTDL
notes: In EGF-treated cells it is tyrosine-phosphorylated (Y333) in the nucleus
B3: FLAG-tagged wild-type PKM2 (enzyme)
chain: not shown
notes: Expressed in U87/EGFR cells; also called FLAG-PKM2; WT FLAG-PKM2
B4: FLAG-PKM2 K433E (enzyme)
chain: not shown
notes: Expressed in U87/EGFR cells; also called PKM2 K433E mutant
B5: FLAG-PKM2 R399/400A (enzyme)
chain: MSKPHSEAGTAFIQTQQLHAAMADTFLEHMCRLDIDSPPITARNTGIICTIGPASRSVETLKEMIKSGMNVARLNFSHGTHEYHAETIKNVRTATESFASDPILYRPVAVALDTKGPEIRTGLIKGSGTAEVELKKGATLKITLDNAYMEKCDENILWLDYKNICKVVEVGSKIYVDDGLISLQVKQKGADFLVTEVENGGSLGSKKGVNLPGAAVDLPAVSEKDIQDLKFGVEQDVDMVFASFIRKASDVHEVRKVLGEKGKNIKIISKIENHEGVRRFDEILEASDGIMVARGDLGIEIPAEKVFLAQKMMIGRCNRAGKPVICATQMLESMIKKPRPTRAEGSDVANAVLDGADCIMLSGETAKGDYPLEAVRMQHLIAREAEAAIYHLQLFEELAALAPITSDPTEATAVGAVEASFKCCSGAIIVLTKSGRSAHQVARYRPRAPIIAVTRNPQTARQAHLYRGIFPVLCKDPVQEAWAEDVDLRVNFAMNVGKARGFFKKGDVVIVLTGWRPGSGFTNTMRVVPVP
notes: Expressed in U87/EGFR cells
B6: FLAG-tagged WT β-catenin (other, UniProt P35222 1-781, looked up)
chain: MATQADLMELDMAMEPDRKAAVSHWQQQSYLDSGIHSGATTTAPSLSGKGNPEEEDVDTSQVLYEWEQGFSQSFTQEQVADIDGQYAMTRAQRVRAAMFPETLDEGMQIPSTQFDAAHPTNVQRLAEPSQMLKHAVVNLINYQDDAELATRAIPELTKLLNDEDQVVVNKAAVMVHQLSKKEASRHAIMRSPQMVSAIVRTMQNTNDVETARCTAGTLHNLSHHREGLLAIFKSGGIPALVKMLGSPVDSVLFYAITTLHNLLLHQEGAKMAVRLAGGLQKMVALLNKTNVKFLAITTDCLQILAYGNQESKLIILASGGPQALVNIMRTYTYEKLLWTTSRVLKVLSVCSSNKPAIVEAGGMQALGLHLTDPSQRLVQNCLWTLRNLSDAATKQEGMEGLLGTLVQLLGSDDINVVTCAAGILSNLTCNNYKNKMMVCQVGGIEALVRTVLRAGDREDITEPAICALRHLTSRHQEAEMAQNAVRLHYGLPVVVKLLHPPSHWPLIKATVGLIRNLALCPANHAPLREQGAIPRLVQLLVRAHQDTQRRTSMGGTQQQFVEGVRMEEIVEGCTGALHILARDVHNRIVIRGLNTIPLFVQLLYSPIENIQRVAAGVLCELAQDKEAAEAIEAEGATAPLTELLHSRNEGVATYAAAVLFRMSEDKPQDYKKRLSVELTSSLFRTEPMAWNETADLGLDIGAQGEPLGYRQDDPSYRSFHSGGYGQDALGMDPMMEHEMGGHHPGADYPVDGLPDLGHAQDLMDGLPPGDSNQLAWFDTDL
notes: Transiently expressed in U87/EGFR or A431 cells; also called FLAG-β-catenin; not shown: FLAG tag
B7: E-cadherin (endogenous, A431 cells) (other, UniProt P12830 155-882, looked up)
chain: DWVIPPISCPENEKGPFPKNLVQIKSNKDKEGKVFYSITGQGADTPPVGVFIIERETGWLKVTEPLDRERIATYTLFSHAVSSNGNAVEDPMEILITVTDQNDNKPEFTQEVFKGSVMEGALPGTSVMEVTATDADDDVNTYNAAIAYTILSQDPELPDKNMFTINRNTGVISVVTTGLDRESFPTYTLVVQAADLQGEGLSTTATAVITVTDTNDNPPIFNPTTYKGQVPENEANVVITTLKVTDADAPNTPAWEAVYTILNDDGGQFVVTTNPVNNDGILKTAKGLDFEAKQQYILHVAVTNVVPFEVSLTTSTATVTVDVLDVNEAPIFVPPEKRVEVSEDFGVGQEITSYTAQEPDTFMEQKITYRIWRDTANWLEINPDTGAISTRAELDREDFEHVKNSTYTALIIATDNGSPVATGTGTLLLILSDVNDNAPIPEPRTIFFCERNPKPQVINIIDADLPPNTSPFTAELTHGASANWTIQYNDPTQESIILKPKMALEVGDYKINLKLMDNQNKDQVTTLEVSVCDCEGAAGVCRKAQPVEAGLQIPAILGILGGILALLILILLLLLFLRRRAVVKEPLLPPEDDTRDNVYYYDEEGGGEEDQDFDLSQLHRGLDARPEVTRNDVAPTLMSVPRYLPRPANPDEIGNFIDENLKAADTDPTAPPYDSLLVFDYEGSGSEAASLSSLNSSESDKDQDYDYLNEWGNRFKKLADMYGGGEDD
B8: FLAG-β-catenin Y333F (other, UniProt P35222 1-781, looked up)
chain: B6 chain with Y333F
notes: Transiently expressed in U87/EGFR or A431 cells; not shown: FLAG tag

Tests used:
endogenous β-catenin = biological target: B2; assay: co-IP, EGF-treated U87/EGFR cells
endogenous c-Src = endogenous c-Src (human, UniProt P12931 2-536); assay: co-IP from nuclear fractions of U87/EGFR cells
purified GST-importin α5 = biological target: T1, purified GST-importin α5 (human, UniProt P52294 1-538, limits assumed); assay: GST pull-down from lysates of EGF-treated U87/EGFR cells
T1 construct: Expressed in bacteria and purified; not shown: GST
T1 sequence (P52294 whole entry): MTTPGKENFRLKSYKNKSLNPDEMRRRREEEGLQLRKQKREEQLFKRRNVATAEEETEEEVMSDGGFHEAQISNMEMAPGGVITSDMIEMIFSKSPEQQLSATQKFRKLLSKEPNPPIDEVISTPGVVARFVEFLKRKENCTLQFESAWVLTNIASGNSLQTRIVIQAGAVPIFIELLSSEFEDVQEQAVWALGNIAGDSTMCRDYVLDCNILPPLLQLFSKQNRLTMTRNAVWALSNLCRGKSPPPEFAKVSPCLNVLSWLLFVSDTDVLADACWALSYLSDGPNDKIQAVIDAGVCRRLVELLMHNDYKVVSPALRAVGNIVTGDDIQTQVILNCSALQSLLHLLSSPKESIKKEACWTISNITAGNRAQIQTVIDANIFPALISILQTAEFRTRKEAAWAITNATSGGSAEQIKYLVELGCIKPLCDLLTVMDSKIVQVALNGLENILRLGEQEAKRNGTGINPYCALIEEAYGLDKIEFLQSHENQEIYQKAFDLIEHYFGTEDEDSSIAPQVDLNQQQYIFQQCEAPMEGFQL

[1] = biological target: APC (endogenous, A431 cells) (UniProt P25054 2-2843, limits assumed); assay: co-IP, A431 cells
Sequence of APC (endogenous, A431 cells) (P25054 2-2843 limits assumed): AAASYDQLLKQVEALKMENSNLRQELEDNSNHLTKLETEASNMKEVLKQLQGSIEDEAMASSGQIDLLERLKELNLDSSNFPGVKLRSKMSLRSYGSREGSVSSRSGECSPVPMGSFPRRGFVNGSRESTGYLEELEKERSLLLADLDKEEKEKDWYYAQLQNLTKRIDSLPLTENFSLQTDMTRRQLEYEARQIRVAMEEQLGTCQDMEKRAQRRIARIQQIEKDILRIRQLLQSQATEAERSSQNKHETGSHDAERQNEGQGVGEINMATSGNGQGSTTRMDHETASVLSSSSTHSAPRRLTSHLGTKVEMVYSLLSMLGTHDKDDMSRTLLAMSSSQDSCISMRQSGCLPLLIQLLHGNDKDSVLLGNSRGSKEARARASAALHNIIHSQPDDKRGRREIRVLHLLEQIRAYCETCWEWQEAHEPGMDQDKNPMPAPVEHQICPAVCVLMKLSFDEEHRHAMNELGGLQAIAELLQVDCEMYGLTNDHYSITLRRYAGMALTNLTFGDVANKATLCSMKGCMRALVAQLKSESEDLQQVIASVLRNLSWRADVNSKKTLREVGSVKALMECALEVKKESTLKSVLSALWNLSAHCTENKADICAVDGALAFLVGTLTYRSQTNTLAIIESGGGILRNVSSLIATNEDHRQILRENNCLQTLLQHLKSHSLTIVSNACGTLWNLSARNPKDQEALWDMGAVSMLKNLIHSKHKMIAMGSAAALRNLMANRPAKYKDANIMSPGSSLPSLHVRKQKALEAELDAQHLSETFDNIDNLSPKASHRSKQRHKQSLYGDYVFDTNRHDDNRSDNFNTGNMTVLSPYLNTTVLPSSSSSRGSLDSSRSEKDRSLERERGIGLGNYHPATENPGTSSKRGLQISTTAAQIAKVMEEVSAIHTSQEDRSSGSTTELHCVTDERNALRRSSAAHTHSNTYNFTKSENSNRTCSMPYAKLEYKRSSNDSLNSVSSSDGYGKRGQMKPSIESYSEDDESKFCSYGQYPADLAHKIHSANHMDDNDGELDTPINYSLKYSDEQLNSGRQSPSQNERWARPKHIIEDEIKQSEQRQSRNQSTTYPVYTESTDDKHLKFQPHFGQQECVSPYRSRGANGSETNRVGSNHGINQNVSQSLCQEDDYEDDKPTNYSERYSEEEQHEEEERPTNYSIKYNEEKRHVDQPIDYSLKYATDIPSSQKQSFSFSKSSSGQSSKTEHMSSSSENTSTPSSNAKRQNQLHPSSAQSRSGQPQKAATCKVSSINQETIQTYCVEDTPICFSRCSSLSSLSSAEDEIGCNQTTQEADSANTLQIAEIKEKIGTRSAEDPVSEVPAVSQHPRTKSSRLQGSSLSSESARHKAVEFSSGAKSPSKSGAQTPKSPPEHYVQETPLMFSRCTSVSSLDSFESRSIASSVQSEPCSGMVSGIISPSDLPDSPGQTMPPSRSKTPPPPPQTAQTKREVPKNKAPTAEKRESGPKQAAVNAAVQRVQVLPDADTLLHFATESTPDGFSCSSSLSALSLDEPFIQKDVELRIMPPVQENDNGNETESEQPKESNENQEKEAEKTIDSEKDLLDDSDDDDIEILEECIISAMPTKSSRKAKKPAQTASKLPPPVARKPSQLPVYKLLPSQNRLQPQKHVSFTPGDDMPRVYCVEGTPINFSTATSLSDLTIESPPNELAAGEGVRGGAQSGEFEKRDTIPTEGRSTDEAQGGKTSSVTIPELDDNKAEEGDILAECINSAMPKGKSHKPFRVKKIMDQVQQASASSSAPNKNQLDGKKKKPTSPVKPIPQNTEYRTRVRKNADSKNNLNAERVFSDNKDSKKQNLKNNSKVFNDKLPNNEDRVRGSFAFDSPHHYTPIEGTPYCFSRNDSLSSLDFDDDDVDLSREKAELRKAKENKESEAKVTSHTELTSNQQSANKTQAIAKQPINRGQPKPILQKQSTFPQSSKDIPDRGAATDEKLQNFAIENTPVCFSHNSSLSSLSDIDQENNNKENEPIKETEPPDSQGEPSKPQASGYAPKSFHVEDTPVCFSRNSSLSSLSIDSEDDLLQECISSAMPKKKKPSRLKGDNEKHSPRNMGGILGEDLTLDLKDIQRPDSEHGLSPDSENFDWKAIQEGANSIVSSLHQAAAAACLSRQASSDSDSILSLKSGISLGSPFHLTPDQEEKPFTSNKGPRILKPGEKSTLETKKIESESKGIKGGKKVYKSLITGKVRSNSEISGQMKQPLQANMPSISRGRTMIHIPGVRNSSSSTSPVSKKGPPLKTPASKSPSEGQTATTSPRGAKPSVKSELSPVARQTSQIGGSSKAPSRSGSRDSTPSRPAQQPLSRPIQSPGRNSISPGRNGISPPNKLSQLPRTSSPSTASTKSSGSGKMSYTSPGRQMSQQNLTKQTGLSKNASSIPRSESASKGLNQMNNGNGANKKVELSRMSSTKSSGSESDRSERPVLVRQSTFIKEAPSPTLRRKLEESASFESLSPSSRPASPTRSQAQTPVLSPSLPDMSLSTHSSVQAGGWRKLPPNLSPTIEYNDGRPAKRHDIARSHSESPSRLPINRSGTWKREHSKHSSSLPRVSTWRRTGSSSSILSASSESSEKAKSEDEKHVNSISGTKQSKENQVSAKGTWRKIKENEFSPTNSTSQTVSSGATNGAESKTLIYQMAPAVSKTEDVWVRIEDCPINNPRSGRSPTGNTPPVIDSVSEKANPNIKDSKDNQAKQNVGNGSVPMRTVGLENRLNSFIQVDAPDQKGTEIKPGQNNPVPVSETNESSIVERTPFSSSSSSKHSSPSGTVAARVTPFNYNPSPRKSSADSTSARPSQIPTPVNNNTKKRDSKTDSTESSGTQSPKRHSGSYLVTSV

[2] = biological target: AXIN2 (endogenous, A431 cells) (UniProt Q9Y2T1 1-843); assay: co-IP, A431 cells
Sequence of AXIN2 (endogenous, A431 cells) (Q9Y2T1 whole entry): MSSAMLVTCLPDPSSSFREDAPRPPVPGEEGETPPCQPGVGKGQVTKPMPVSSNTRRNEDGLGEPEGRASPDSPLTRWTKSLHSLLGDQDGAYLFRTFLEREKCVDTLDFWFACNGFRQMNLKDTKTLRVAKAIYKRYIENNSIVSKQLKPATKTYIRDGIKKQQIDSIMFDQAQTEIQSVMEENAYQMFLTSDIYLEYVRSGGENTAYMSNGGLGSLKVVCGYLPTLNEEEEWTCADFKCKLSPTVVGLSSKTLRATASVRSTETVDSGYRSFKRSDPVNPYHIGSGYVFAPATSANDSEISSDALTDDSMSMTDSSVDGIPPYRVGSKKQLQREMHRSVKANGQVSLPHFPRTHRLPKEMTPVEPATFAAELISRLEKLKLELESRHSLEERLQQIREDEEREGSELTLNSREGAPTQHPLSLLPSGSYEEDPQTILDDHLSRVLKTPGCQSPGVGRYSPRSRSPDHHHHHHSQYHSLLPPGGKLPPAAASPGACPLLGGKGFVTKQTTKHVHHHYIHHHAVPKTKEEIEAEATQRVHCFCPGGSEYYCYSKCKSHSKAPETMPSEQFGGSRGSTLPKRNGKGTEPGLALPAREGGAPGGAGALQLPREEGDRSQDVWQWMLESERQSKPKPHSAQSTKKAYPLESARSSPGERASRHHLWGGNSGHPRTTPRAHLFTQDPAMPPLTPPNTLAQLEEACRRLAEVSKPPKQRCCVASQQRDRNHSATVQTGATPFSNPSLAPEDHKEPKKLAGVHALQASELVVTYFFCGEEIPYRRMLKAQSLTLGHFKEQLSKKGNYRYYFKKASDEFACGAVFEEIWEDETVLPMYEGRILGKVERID

FLAG-tagged WT β-catenin = biological target: B6; assay: co-IP, A431 cells
FLAG-β-catenin Y333F = biological target: B8; assay: co-IP, A431 cells

Binder: B1
binding result (endogenous β-catenin): binds

Binder: B2
binding result (endogenous c-Src): binds

Binder: B3
binding result (endogenous β-catenin): binds

Binder: B4
binding result (endogenous β-catenin): no binding

Binder: B5
binding result (purified GST-importin α5): no binding

Binder: B6
binding result [1]: binds | binding result [2]: binds

Binder: B7
binding result (FLAG-tagged WT β-catenin): binds | binding result (FLAG-β-catenin Y333F): binds

Binder: B8
binding result [1]: binds | binding result [2]: binds
